# Results: patent US20250019450A1
# Columns and labels:
# [1] = target: human IL-12RB2 with C-terminal HA tag, transiently expressed on HEK-293T cells (human) (UniProt Q99665); test: FACS, periplasmic extract, HEK-293T
# [2] = target: cyno IL-12RB2 with C-terminal HA tag, transiently expressed on HEK-293T cells (cyno); test: FACS, periplasmic extract, HEK-293T
# [3] = target: human IL-12Rβ2-huFc-his (R&D system), biotinylated (human) (UniProt Q99665); test: ELISA, periplasmic extract
# Sequence of human IL-12Rβ2-huFc-his (R&D system), biotinylated (human) (Q99665 24-622 limits assumed): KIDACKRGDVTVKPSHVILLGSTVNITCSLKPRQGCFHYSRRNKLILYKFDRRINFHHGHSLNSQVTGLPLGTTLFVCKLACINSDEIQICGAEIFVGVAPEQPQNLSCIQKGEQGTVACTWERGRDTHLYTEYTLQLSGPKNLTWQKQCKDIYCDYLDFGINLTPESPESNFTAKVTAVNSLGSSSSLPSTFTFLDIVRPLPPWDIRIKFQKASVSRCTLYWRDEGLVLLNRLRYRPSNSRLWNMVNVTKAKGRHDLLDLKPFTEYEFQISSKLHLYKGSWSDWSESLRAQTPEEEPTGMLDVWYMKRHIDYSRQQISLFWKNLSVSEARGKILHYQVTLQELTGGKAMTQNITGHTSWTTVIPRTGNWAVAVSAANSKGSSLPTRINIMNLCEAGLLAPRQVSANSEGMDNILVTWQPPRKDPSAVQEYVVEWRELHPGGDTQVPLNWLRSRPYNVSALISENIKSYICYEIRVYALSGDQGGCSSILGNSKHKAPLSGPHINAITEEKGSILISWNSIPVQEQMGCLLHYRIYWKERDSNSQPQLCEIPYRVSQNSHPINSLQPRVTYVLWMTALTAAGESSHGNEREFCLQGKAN
# Sequence of human IL-12RB2 with C-terminal HA tag, transiently expressed on HEK-293T cells (human) (Q99665 24-862): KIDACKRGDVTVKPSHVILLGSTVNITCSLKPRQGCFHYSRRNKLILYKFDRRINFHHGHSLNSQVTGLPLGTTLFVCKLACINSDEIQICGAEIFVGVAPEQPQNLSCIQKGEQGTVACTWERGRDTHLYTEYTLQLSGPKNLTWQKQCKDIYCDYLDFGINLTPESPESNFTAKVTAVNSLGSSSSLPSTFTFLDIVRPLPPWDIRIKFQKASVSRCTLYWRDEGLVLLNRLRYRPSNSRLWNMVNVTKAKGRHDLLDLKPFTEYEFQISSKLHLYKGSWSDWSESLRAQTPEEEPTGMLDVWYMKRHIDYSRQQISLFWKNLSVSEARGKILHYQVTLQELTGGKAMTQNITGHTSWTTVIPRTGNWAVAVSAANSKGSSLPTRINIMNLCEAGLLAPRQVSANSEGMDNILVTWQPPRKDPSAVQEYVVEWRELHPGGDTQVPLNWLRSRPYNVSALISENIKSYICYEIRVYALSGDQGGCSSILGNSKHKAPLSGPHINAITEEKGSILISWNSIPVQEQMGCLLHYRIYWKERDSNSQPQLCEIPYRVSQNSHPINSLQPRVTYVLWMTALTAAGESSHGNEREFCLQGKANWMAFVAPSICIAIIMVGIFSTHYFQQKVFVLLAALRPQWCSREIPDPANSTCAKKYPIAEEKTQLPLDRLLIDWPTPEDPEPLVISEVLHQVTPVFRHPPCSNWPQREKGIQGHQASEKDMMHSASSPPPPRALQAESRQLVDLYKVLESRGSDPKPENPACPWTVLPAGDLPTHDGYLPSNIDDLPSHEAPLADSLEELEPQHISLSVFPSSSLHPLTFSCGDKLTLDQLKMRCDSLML
# Sequence of cyno IL-12RB2 with C-terminal HA tag, transiently expressed on HEK-293T cells (cyno) (chain, as listed by the source): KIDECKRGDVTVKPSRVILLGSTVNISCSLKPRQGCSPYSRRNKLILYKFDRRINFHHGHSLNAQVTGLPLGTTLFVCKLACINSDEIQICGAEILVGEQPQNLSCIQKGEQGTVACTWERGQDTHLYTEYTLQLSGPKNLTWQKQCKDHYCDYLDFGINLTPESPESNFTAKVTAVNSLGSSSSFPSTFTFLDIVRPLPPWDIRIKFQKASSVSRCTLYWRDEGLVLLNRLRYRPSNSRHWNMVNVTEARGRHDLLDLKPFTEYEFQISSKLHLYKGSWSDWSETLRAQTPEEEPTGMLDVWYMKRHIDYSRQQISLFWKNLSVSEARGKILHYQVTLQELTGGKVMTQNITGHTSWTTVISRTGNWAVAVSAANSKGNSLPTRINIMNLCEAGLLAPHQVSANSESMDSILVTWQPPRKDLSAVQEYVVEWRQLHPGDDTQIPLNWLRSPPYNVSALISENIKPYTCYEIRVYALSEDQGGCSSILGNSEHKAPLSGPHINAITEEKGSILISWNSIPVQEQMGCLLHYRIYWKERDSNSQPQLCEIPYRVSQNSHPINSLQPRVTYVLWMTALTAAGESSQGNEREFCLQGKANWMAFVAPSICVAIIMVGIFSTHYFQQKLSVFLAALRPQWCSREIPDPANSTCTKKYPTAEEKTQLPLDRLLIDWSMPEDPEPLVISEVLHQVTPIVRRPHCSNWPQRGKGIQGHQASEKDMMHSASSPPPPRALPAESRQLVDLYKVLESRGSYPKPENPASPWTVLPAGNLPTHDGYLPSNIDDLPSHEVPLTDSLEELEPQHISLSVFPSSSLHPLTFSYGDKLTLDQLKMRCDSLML
FOB [1],FOB [2],OD450 nm [3],Binder
1.98 fold,,,VHH93B2 (VHH) VHH: QVQLVESGGGLVQPGGSLRLSCAASGFTFEPYDMSWFRQAPGKGPEWVSAIDKGGGAGATYYADSVKGRFTISRDNAKKTLYLQMKSLKPEDTAVYYCAITAGPYSDSTPRVAYRGEGTQVTVSS
,,0.227,VHH211B2 (VHH) VHH: QVQLVESGGGLVQAGNSLRLSCAASGRTFSSYVVGWFRQAPGKEREFVGRISWSGARTYYADSVKGRFTISRDNAKNTVYLQMNSLKPEDTAVYYCAADLKWEVLLSEHFEYWGQGTQVTVSS
,,0.138,VHH229B2 (VHH) VHH: QVQLVESGGGLVQAGGSLRLSCAASGRTFSSYAMGWFRQAPGKEREFVSAISWNGGSRYYVESVEGRFTISRDNAKNTVYLQMNSLKPEDTAVYYCAASRIYTNYVARSYEYDDWGQGTQVTVSS
,1.66 fold,,VHH230B2 (VHH) VHH: QVQLVESGGGLVQAGGSLRLSCAASGRTFSSYAMGWFRQAPGKEREFVSAISWSGLSTYYVESVQGRFTISRDNAKNTVYLQMNSLKPEDTAVYYCAASRIYTNYVARSYEYDDWGQGTQVTVSS
1.63 fold,,0.139,VHH241B2 (VHH) VHH: QVQLVESGGGLVQLGDSLRLSCAASGRGFSSWTMAWFRQALGKRREFVAAITATGARTCSAESEGRFTISRDNAKNMVFLQMNSLKAEDTAVYYCAATGIASWDPGMADKYTYWGQGTQVTVSS

# The next lines start with the binder.
Binder,FOB [1],FOB [2],OD450 nm [3]
VHH356B2 (VHH) VHH: QLQLVESGGGLVQPGGSLRLSCAASGSIFSINAMGWYRQAPGKQRELVAAITSGGSTAYADSVKGRFTISRDNAKNTVYLQMNSLKPEDTAVYYCNADRDPITSWYVRGDYWGQGTQVTVSS,,2 fold,
VHH216B2 (VHH) VHH: QVQLVESGGGLVQPGGSLRLSCATSEHTFGTYRMGWFRQAPGKEREFVAGISWTGQTTYYAASVKGRFAISKDNAKNTVYLQMNTLKSDDTAVYYCAVETNNLGRWDRPSEYDYWGQGTQVTVSS,0.99 fold,,0.586
VHH219B2 (VHH) VHH: QVQLEESGGGLVQAGGSLRLSCAASGRTFSSYVVGWFRQAPGKEREFVGRISWSGARTYYADSVEGRFTISRDNAKNTVYLQMNSLKPEDTAVYYCAADLKWEVLLSEHYEYWGQGTQVTVSS,1.54 fold,,
VHH277B2 (VHH) VHH: QVQLVESGGGLVQLGDSLRLSCAASGRGFSSWTMAWFRQALGKRREFVAAITATGARTCSAESEGRFTISRDNAKNMVFLQMNSLKAEDTAVYYCAATEIAGWDPGMGDKYPYWGQGTQVTVSS,,,0.137
